T1: huCLL1-K244-Avi-Tev-His (human, UniProt Q5QGZ9 65-265)
T1 construct: extracellular domain
T1 sequence (looked up): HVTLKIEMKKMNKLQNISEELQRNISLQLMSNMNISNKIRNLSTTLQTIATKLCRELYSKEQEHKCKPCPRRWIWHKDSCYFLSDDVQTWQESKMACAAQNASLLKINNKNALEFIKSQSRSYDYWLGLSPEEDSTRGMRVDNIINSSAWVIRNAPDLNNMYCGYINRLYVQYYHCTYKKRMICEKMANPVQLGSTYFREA

B1: Polypeptide No. 269 (scFv, V domains shown)
VH: QVQLVQSGAEVKKPGASVKVSCKASGGSFSSYALHWVRQAPGQGLEWMGLINPSGGRTSYAQKFQGRVTMTRDTSTSTVYMELSSLRSEDTAVYYCARDEGYATFDYWGQGTLVTVSS
VL: EIVMTQSPATLSVSPGERATLSCRASQSISSSYLAWYQQKPGQAPRLLIYDVSARATGIPARFSGSGSGTEFTLTISSLQSEDFAVYYCQQYYSTPLTFGPGTKVDIKR
notes: scFv
B2: Polypeptide No. 293 (scFv, V domains shown)
VH: QVQLVQSGAEVKKPGSSVKVSCKASGYMFTTPYIHWVRQAPGQGLEWMGVINPISGTTTYAQKFQGRVTITADESTSTAYMELSSLRSEDTAVYYCANDRHYDFWSGYYKEEWEYFQHWGQGTLVTVSS
VL: not shown
notes: scFv
B3: Polypeptide No. 270 (scFv, V domains shown)
VH: QVQLVQSGAEVKKPGASVKVSCKASGGTFSSYYMHWVRQAPGQGLEWMGWISAYNGNTNYAQKLQGRVTMTRDTSTSTVYMELSSLRSEDTAVYYCAKDMGYYYDSSGGFDYWGQGTLVTVSS
VL: DIQMTQSPSSLSASVGDRVTITCRASQSISSYLNWYQQKPGKAPKLLIYDASNLETGVPSRFSGSGSGTDFTLTISSLQPEDFATYYCQQTYTTPLTFGQGTKVEIKR
notes: scFv
B4: Polypeptide No. 287 (scFv, V domains shown)
VH: QVQLVQSGAEVKKPGASVKVSCKASGYTFTRHYVHWVRQAPGQGLEWVGIINPSSGSASYAQKFQGRVTMTRDTSTSTVYMELSSLRSEDTAVYYCARDRLRSRFDYWGQGTLVTVSS
VL: DIQMTQSPSSLSASVGDRVTITCRASQSISSSLAWYQQKPGKAPKLLIYAASSLQSGVPSRFSGSGSGTDFTLTISSLQPEDFATYYCQQSYTIPPTFGQGTKLEIKR
notes: scFv
B5: Polypeptide No. 87 (scFv, V domains shown)
VH: QVQLVQSGAEVKKPGASVKVSCKASGYSFTNYYIHWVRQAPGQGLEWMGWMNPYTGQTGYAQKFQGRVTMTRDTSTSTVYMELSSLRSEDTAVYYCTTDEETMDFHLWGRGTLVTVSS
VL: DIQMTQSPSSLSASVGDRVTITCZASQSISSYLNWYQQKPGKAPKLLIYDASNLETGVPSRFSGSGSGTDFTLTISSLQPEDFATYYCQQANTFPITFGQGTRLEIKR
notes: scFv
B6: Polypeptide No. 290 (scFv, V domains shown)
VH: QVQLVQSGAEVKKPGASVKVSCKASGGTFTSYYMHWVRQAPGQGLEWMGWISAYNGKTDYAQKFQGRVTMTRDTSTSTVYMELSSLRSEDTAVYYCARDQGYYYDSSGAFDIWGQGTLVTVSS
VL: DIQMTQSPSSLSASVGDRVTITCRASQSISSYLNWYQQKPGKAPKLLIYDASNLETGVPSRFSGSGSGTDFTLTISSLQPEDFATYYCQQTYSAPPTFGQGTKLEIKR
notes: scFv
B7: Polypeptide No. 278 (scFv, V domains shown)
VH: QVQLVQSGAEVKKPGASVKVSCKASGYTFTSYYMHWVRQAPGQGLEWMGIINPSSGSTTYAQKFQGRVTMTRDTSTSTVYMELSSLRSEDTAVYYCARSVGATSAFDIWGQGTMVTVSS
VL: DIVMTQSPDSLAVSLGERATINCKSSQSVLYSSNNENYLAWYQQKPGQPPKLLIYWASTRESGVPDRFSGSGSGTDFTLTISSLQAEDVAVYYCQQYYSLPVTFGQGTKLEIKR
notes: scFv
B8: Polypeptide No. 61 (scFv, V domains shown)
VH: QVQLVQSGAEVKKPGASVKVSCKASGYTFTNYYMHWVRQAPGQGLEWMGIINPSGGSTSYAQKFQGRVTMTRDTSTSTVYMELSSLRSEDTAVYYCARAEWDILTGYYIDYWGQGTLVTVSS
VL: DIQMTQSPSSLSASVGDRVTITCQASQDISNYLNWYQQKPGKAPKLLIYGASSLQSGVPSRFSGSGSGTDFTLTISSLQPEDFATYYCQQHNSYPWTFGQGTKVEIKR
notes: scFv
B9: Polypeptide No. 288 (scFv, V domains shown)
VH: QVQLVQSGAEVKKPGASVKVSCKASGYTFTTYDINWVRQAPGQGLEWMGWMNPSSGNSGFAQQFQGRVTMTRDTSTSTVYMELSSLRSEDTAVYYCAREDYYDSSGYYNWGQGTLVTVSS
VL: DIQMTQSPSSLSASVGDRVTITCRASQGISNNLNWYQQKPGKAPKLLIYKASTLESGVPSRFSGSGSGTDFTLTISSLQPEDFATYYCQQSYSTPITFGQGTKVEIKR
notes: scFv
B10: Polypeptide No. 280 (scFv, V domains shown)
VH: QVQLVQSGAEVKKPGASVKVSCKASGYTFTRYYMHWVRQAPGQGLEWMGIINPSGGSTSYAQKFQGRVTMTRDTSTSTVYMELSSLRSEDTAVYYCARGETRSYAPYGMDVWGQGTTVTVSS
VL: DIQMTQSPSSLSASVGDRVTITCQASQDISNYLNWYQQKPGKAPKLLIYQASNKDTGVPSRFSGSGSGTDFTLTISSLQPEDFATYYCQQSYSTPPTFGQGTKLEIKR
notes: scFv
B11: Polypeptide No. 294 (scFv, V domains shown)
VH: QVQLVQSGAEVKKPGASVKVSCKASGYTFTSNNMHWVRQAPGQGLEWMGWINLNSGGTNYAQKFQGRVTMTRDTSTSTVYMELSSLRSEDTAVYYCAKAIDYYYMDVWGKGTTVTVSS
VL: DIQMTQSPSSLSASVGDRVTITCRASQGIRNDLGWYQQKPGKAPKLLIYQASSLENGVPSRFSGSGSGTDFTLTISSLQPEDFATYYCQQAYSLPWTFGQGTKLEIKR
notes: scFv
B12: Polypeptide No. 283 (scFv, V domains shown)
VH: QVQLVQSGAEVKKPGASVKVSCKASGYTFTSYYMDWVRQAPGQGLEWMGRINPSSGSTTYVQKFQGRVTMTRDTSTSTVYMELSSLRSEDTAVYYCARTPSGSYSDFDYWGQGTLVTVSS
VL: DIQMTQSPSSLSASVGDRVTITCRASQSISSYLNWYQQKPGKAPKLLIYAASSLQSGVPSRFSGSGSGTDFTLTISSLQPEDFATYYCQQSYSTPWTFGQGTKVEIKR
notes: scFv
B13: Polypeptide No. 273 (scFv, V domains shown)
VH: QVQLVQSGAEVKKPGSSVKVSCKASGDTFNSYAVNWVRQAPGQGLEWMGGIIPSFGTPTYAWKFQGRVTITADESTSTAYMELSSLRSEDTAVYYCASVSYGSFDYWGQGTLVTVSS
VL: EIVMTQSPATLSVSPGERATLSCRASQSVSSSSLAWYQQKPGQAPRLLIYDASTRASGIPARFSGSGSGTEFTLTISSLQSEDFAVYYCQQYNRLPYTFGQGTKLEIKR
notes: scFv
B14: Polypeptide No. 284 (scFv, V domains shown)
VH: QVQLVQSGAEVKKPGASVKVSCKASGYTFTSYYMHWVRQAPGQGLEWMGVINPSGGSTTYAQKFQGRVTMTRDTSTSTVYMELSSLRSEDTAVYYCARVPGVSPGDYGMDVWGQGTTVTVSS
VL: DIQMTQSPSSLSASVGDRVTITCRASHNISTWLAWYQQKPGKAPKLLIYAASSLQSGVPSRFSGSGSGTDFTLTISSLQPEDFATYYCQQSYSTPPTFGQGTRLEIKR
notes: scFv
B15: Polypeptide No. 292 (scFv, V domains shown)
VH: QVQLVQSGAEVKKPGASVKVSCKASGYTFTSYGISWVRQAPGQGLEWMGWINPNSGGTNYAQKFQGRVTMTRDTSTSTVYMELSSLRSEDTAVYYCARQGGLRDFDYWGQGTLVTVSS
VL: DIQMTQSPSSLSASVGDRVTITCRASQSISTYVNWYQQKPGKAPKLLIYDTSSLQSGVPSRFSGSGSGTDFTLTISSLQPEDFATYYCQQSFITPPTFGQGTKLEIKR
notes: scFv

How the values were obtained:
[1] = molecular target: T2, huFLT3-M227 stably expressed on Ramos cells (human, UniProt P36888 27-993); test: FACS on cells
T2 construct: whole, on cells; also called FLT3 Mutant

[2] = molecular target: T3, huFLT3-T227 stably expressed on Ramos cells (human, UniProt P36888 27-993); test: FACS on cells
T3 construct: whole, on cells; also called FLT3 WT

[3] = molecular target: T1, huCLL1-K244-Avi-Tev-His; test: BLI;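 further: Bio-layer interferometry with scFvs captured on biosensors via anti-V5 antibody, exposed 2 min to CLL-1 K244 or Q244 protein, 5 min dissociation, scored as binding, no binding or ambiguous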
Description: Discovered scFvs were analyzed for binding to huCD33-R69-His or huCD33-G69-Fc recombinant proteins (for anti-CD33 scFvs; for CLL-1 scFvs, huCLL1-K244-Avi-Tev-His or huCLL1-Q244-Avi-Tev-His were used; for FLT3, huFLT3-T227-His or huFLT3-M227-Fc were used) using BLI on a ForteBio Octet HTX instrument. Streptavidin-coated biosensors were loaded with biotinylated anti-V5 tag monoclonal antibody for 5 min and were then quenched and blocked with 20 μM amine-PEG2-Biotin for 5 min. scFvs were captured on biosensors from scFv clone periplasmic extracts. huCD33 (or huCLL-1, or huFLT3) proteins were then associated with the captured scFvs for 2 minutes, followed by dissociation with buffer (1×HBST [10 mM HEPES pH 7.4, 150 mM NaCl, 0.05% Tween-20], 1 g/L BSA) for 5 minutes. […] Data was fitted with 1:1 Langmuir equation and off-rate values were reported.
Analogous methods were used to assess selectivity of binding of polypeptides to CLL-1 K244 or CLL-1 Q244.

Row | Binder | FACS geometric mean fold change over Jurkat parental [1] [fold] | FACS geometric mean fold change over Jurkat parental [2] [fold] | binding result [3]
1 | B1 | 10 to 30 | 10 to 30 | 
2 | B2 | 2 to 10 | 2 to 10 | 
3 | B3 | 10 to 30 | 10 to 30 | 
4 | B4 | 2 to 10 | 10 to 30 | 
5 | B5 |  |  | no binding
6 | B6 | 10 to 30 | 10 to 30 | 
7 | B7 | > 30 | > 30 | 
8 | B8 |  |  | binds
9 | B9 | 10 to 30 | 2 to 10 | 
10 | B10 | > 30 | > 30 | 
11 | B11 | 10 to 30 | 10 to 30 | 
12 | B12 | > 30 | > 30 | 
13 | B13 | 10 to 30 | 10 to 30 | 
14 | B14 | > 30 | > 30 | 
15 | B15 | 2 to 10 | 2 to 10 | 

Reference: US20240101668A1 (WUGEN, published 2024)
